Results published in patent US20250223354A1 (BIOTHEUS, published 2025).

Key:
human TIGIT-his protein = target: T1, human TIGIT-his protein (human, UniProt Q495A1 22-141); test: BLI (ForteBio), IgG on AHQ sensor, 100 nM TIGIT-his, monovalent, 1:1 model
T1 construct: not shown: his tag
T1 sequence: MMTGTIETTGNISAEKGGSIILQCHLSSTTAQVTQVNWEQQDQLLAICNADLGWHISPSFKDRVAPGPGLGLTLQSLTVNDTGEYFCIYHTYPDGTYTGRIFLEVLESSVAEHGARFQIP
Protocol: (§1) Biofilm layer optical interference technology (ForteBio) was used to determine the binding and dissociation […] values of the anti-TIGIT monoclonal antibodies obtained in Example 1 to human, cynomolgus monkey and mouse TIGIT. Fortebio affinity measurements were performed according to existing methods (Este, P et al., High throughput solution-based measurement of antibody-antigen affinity and epitope binning. Mabs, 2013.5(2): p 270-8).
(§2) The antibody-loaded sensor was incubated in 100 nM TIGIT-his antigen to the plateau phase, and then the sensor was transferred to an analysis buffer and incubated for at least 2 minutes for measuring dissociation rate. The kinetic analysis was performed using a 1:1 binding model.

[1] = target: T2, cynomolgus monkey TIGIT-his protein (cynomolgus monkey); test: as above
T2 construct: also called Cynomolgus TIGIT-his; not shown: his tag
T2 sequence (chain, as listed by the source): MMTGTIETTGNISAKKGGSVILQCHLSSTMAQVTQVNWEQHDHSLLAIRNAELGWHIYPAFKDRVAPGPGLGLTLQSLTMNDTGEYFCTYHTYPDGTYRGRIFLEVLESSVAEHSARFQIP
Protocol: as §1, §2

[2] = target: T3, human TIGIT expressed on cells (human, UniProt Q495A1 22-244); test: flow cytometry on CHO cells overexpressing human TIGIT, median fluorescence intensity PE-A; unit from the concentration axis
T3 construct: whole, on cells; cDNA encoding human TIGIT in pCHO1.0 for CHO cells; also called CHO-huTIGIT cells
T3 sequence (looked up): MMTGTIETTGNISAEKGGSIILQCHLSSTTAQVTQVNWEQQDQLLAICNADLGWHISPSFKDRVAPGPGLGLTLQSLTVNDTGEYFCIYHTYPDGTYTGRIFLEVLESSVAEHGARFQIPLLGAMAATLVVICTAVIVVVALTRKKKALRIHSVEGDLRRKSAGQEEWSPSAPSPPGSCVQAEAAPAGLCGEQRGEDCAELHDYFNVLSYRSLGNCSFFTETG
Description: (§3) Specifically, CHO cells overexpressing human TIGIT (CHO-huTIGIT cells), CHO cells overexpressing cynomolgus TIGIT (CHO-cynoTIGIT cells) and CHO cells overexpressing mouse TIGIT (CHO-muTIGIT cells) were generated by transfection of the pCHO1.0 vector (purchased from Invitrogen) with cDNA encoding human TIGIT, cynomolgus TIGIT and mouse TIGIT cloned into the multiple cloning site (MCS), respectively, followed by pressure screening. The overexpressing cells were expanded and adjusted to an appropriate cell density, and added to a 96-well flow cytometry plate. After centrifugation, the cells were added with a gradiently diluted sample to be tested, and incubated at 4° C. for 30 minutes. The cells were washed twice with PBS, and added with a fluorescent secondary antibody correspondingly diluted to an appropriate concentration, then incubated at 4° C. for 30 minutes, and washed twice with PBS. Cells were resuspended with PBS, and detected on a CytoFlex flow cytometer, and the corresponding MFI was calculated. Graphpad software was used for graphical analysis to obtain EC₅₀ values.

[3] = target: T3, human TIGIT expressed on cells; test: flow cytometry on activated human primary T cells (TIGIT), readout positive cell (%); unit from the concentration axis
Description: The binding activity of the anti-TIGIT antibody of the present invention to TIGIT on the surface of activated T cells was detected based on the flow cytometry detection method.
Specifically, human PBMC were sorted according to the experimental protocol provided by […] Company (stemcell, Cat. No.: #17951C) to obtain human total T cells. […] The activated T cells were adjusted to an appropriate cell density and added to a 96-well flow cytometry plate. After centrifugation, the gradiently diluted sample to be tested was added, and incubated at 4° C. for 30 minutes. Washing was carried out twice with PBS, and a fluorescent secondary antibody diluted to an appropriate concentration was added, incubated at 4° C. for 30 minutes, and washed twice with PBS. […]

[4] = target: T4, cynomolgus TIGIT overexpressed on CHO cells (cynomolgus, UniProt A0A7N9I9V4 89-312); test: flow cytometry on CHO cells overexpressing cynomolgus TIGIT, median fluorescence intensity PE-A; unit from the concentration axis
T4 construct: whole, on cells; also called CHO-cynoTIGIT cells
T4 sequence (A0A7N9I9V4 entry or part of it): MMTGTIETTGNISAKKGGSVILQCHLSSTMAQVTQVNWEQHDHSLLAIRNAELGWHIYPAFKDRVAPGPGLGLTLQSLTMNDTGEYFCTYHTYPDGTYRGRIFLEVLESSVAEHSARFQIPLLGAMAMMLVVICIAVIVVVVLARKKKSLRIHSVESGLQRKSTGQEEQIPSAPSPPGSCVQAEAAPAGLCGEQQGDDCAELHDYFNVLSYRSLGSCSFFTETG
Description: as §3

[5] = target: T3, human TIGIT expressed on cells; test: flow cytometry, competition with human CD155-mouse IgG2a Fc (2 ug/mL) on CHO-huTIGIT cells
Protocol: (§4) Specifically, the CHO-huTIGIT cells were expanded and adjusted to a cell density of 2×10⁶ cells/mL, added to a 96-well flow plate at 100 μL/well, and centrifuged for later use. The purified monoclonal antibodies were diluted 3-fold with PBS starting at 400 nM for a total of 12 concentration gradients. The diluted sample was added at 60 μL/well to the cells-carrying 96-well flow plate, and incubated at 4° C. for 30 minutes. […] APC-conjugated goat anti-mouse IgG antibody diluted 100-fold with PBS was added at 100 μL/well, incubated at 4° C. for 30 minutes, and washed twice with PBS. Cells were resuspended with PBS at 100 μL/well, and detected on a CytoFlex flow cytometer, and the corresponding MFI was calculated.

[6] = target: T3, human TIGIT expressed on cells; test: flow cytometry blocking assay: binding of human CD155 protein with mouse IgG2a Fc tag to CHO cells overexpressing human TIGIT, median fluorescence intensity APC-A; unit from the concentration axis
Protocol: as §4

[7] = target: T4, cynomolgus TIGIT overexpressed on CHO …; test: flow cytometry, CHO-cynoTIGIT cells
Description: as §3

[8] = target: T3, human TIGIT expressed on cells; test: flow cytometry, CHO-huTIGIT cells
Description: as §3

B1: Tiragolumab (antibody, V domains shown)
VH: EVQLQQSGPGLVKPSQTLSLTCAISGDSVSSNSAAWNWIRQSPSRGLEWLGKTYYRFKWYSDYAVSVKGRITINPDTSKNQFSLQLNSVTPEDTAVFYCTRESTTYDLLAGPFDYWGQGTLVTVSS
VL: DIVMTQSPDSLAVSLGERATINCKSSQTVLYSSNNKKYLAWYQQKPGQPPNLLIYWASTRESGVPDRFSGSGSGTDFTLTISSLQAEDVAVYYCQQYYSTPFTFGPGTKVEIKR
**Q.** With B1 as the binder, how does the Kd (human TIGIT-his protein) read?
**A.** The Kd was 0.87 nM.

**Q.** What about the Kd [1] of the same binder?
**A.** Its Kd is 3.5 nM.

**Q.** What about the EC50 [2] of the same binder?
**A.** Its EC50 is 1.34 nM.

**Q.** What about the EC50 [3] of the same binder?
**A.** Its EC50 is 0.274 nM.

**Q.** What about the EC50 [4] of the same binder?
**A.** Its EC50 is 4.18 nM.

**Q.** And the IC50 [5]?
**A.** Its IC50 is 0.63 nM.

**Q.** And the IC50 [6]?
**A.** The IC50 was 0.634 nM.

**Q.** And the EC50 [7]?
**A.** Its EC50 is 4.18 nM.

**Q.** What about the EC50 [8] of the same binder?
**A.** The EC50 was 1.35 nM.
